According to patent US11814447B2, “Peptide ligands for binding to EphA2” (BICYCLERD LIMITED, priority 2018, dated 2023):
Starred links: 1 amine or outer side, 2 acyl side, 3 side chain; linkers in the order of their positions; H or OH if unused. Positions of bridges follow the written chain, without caps; N, C: chain ends. Non-standard residues stand in square brackets, D forms with d. Primed or numbered codes have the meaning given here. No end group written: not given here. TBMB′ = 1,3,5-tris(bromomethyl)benzene, 1,3,5-tris(methylene)benzene core, three thioethers to Cys; 1Nal = N[C@@H](Cc1cccc2ccccc12)C(=O)O; TBMB = c1c(C[*:1])cc(C[*:3])cc1C[*:2]; Gly(cPent) = N[C@H](C(=O)O)C1CCCC1; hArg = N=C(N)NCCCC[C@H](N)C(=O)O; Tle = CC(C)(C)[C@H](N)C(=O)O; Aib = CC(C)(N)C(=O)O; βAla = NCCC(=O)O; Sar = CNCC(=O)O

Tests used:
Human EphA2 (Ecto) [1] = target: T1, Human EphA2 (Ecto) (Human, UniProt P29317 24-537); test: FP competition, tracer Compound 18
T1 construct: extracellular domain
T1 sequence (P29317 24-537): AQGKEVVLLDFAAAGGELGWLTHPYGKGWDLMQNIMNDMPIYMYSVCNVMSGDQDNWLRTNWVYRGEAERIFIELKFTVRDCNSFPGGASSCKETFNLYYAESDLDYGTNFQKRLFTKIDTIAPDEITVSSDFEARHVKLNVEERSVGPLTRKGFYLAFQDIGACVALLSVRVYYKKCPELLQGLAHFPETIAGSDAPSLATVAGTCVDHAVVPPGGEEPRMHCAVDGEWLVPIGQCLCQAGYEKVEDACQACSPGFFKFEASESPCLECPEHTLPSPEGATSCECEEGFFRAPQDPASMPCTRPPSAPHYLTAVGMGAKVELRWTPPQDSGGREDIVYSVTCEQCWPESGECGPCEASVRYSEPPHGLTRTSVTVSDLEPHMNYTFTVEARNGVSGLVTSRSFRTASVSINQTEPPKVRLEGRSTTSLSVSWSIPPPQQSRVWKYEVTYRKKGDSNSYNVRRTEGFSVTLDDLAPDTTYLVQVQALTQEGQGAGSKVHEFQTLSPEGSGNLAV
Experimental: (§1) Peptides without a fluorescent tag were tested in competition with a peptide with a fluorescent tag and a known Kd (Table 2). Peptides were diluted to an appropriate concentration in assay buffer as described in the direct binding assay with a maximum of 5% DMSO, then serially diluted 1 in 2. […] Measurements were conducted as for the direct binding assay, however the gain was determined prior to the first measurement. Data analysis was in Systat Sigmaplot version 12.0 where the mP values were fit to a user defined cubic equation to generate a Ki value: […]

Human EphA2 (Ecto) [2] = target: T1, Human EphA2 (Ecto); test: FP competition, tracer Compound 18; remark: listed apart in the source
Experimental: as §1

Human EphA2 (Ecto) [3] = target: T1, Human EphA2 (Ecto); test: FP competition, tracer Compound 66
[4] = target: Human EphA2 (Ecto) (Human) (UniProt P29317); test: FP competition, tracer Compound 18
Sequence of Human EphA2 (Ecto) (Human) (P29317 24-537): as above

| Binder | Ki (Human EphA2 (Ecto) [2]) [nM] | Ki (Human EphA2 (Ecto) [3]) [nM] | Ki [4] [nM] | further results |
| --- | --- | --- | --- | --- |
| ADVHCPWAPFWCPVNRPGCA (linker 5-12-19 via TBMB) [Bicycle Compound 151] | 394 | – | – | Ki (Human EphA2 (Ecto) [1]): 394 nM |
| ADVHCPWGPFWCPV[dA]RPGCA (linker 5-12-19 via TBMB) [Bicycle Compound 155] | 2 | – | – | Ki (Human EphA2 (Ecto) [1]): 2 nM |
| ADVHCPWGPFWCPVN[dA]PGCA (linker 5-12-19 via TBMB) [Bicycle Compound 156] | 14.9 | – | – | Ki (Human EphA2 (Ecto) [1]): 14.9 nM |
| ADVHCPWGAFWCPVNRPGCA (linker 5-12-19 via TBMB) [Bicycle Compound 152] | 1.8 | – | – | Ki (Human EphA2 (Ecto) [1]): 1.8 nM |
| [βAla][Sar][Sar][Sar][Sar][Sar][Sar][Sar][Sar][Sar][Sar]H[dD]VPCP[1Nal]G[Aib]F[1Nal]CP[Tle]NRPGC (linker 16-23-30 via TBMB) [Bicycle Compound 252] | – | – | 0.37 | – |
| [Sar][Sar]ACPWGPFWCPVARPGC (linker 4-11-18 via TBMB) [Bicycle Compound 101] | – | 265 | – | – |
| [βAla][Sar][Sar][Sar][Sar][Sar][Sar][Sar][Sar][Sar][Sar]H[dD][Gly(cPent)]PCP[1Nal]G[Aib]F[1Nal]CP[Tle]NR[Aib]GC (linker 16-23-30 via TBMB) [Bicycle Compound 278] | – | – | 0.46 | – |
| [βAla][Sar][Sar][Sar][Sar][Sar][Sar][Sar][Sar][Sar][Sar]H[dD][Gly(cPent)]PC[Aib]WG[Aib]FWCP[Tle]NR[Aib][dD]C (linker 16-23-30 via TBMB) [Bicycle Compound 275] | – | – | 15.9 | – |
| [βAla][Sar][Sar][Sar][Sar][Sar][Sar][Sar][Sar][Sar][Sar]H[dD]VPCPWGP[hArg]WCP[Tle]N[hArg]P[dD]C (linker 16-23-30 via TBMB) [Bicycle Compound 272] | – | – | 3.99 | – |
| [Sar][Sar]ACPWGPFWCPVNRPAC (linker 4-11-18 via TBMB) [Bicycle Compound 111] | 108 | 238 | – | – |
| [Sar][Sar]ACPWGPFWCPVNRAGC (linker 4-11-18 via TBMB) [Bicycle Compound 104] | 124 | 194 | – | – |
| [βAla][Sar][Sar][Sar][Sar][Sar][Sar][Sar][Sar][Sar][Sar]H[dD]VPCPWG[Aib]F[1Nal]CP[Tle]N[hArg]P[dD]C (linker 16-23-30 via TBMB) [Bicycle Compound 269] | – | – | 1.11 | – |
| [βAla][Sar][Sar][Sar][Sar][Sar][Sar][Sar][Sar][Sar][Sar]H[dD]VPCP[1Nal]G[Aib]FWCP[Tle]N[hArg]P[dD]C (linker 16-23-30 via TBMB) [Bicycle Compound 265] | – | – | 1.55 | – |
| [Sar][Sar]ACPWGPAWCPVNRPGC (linker 4-11-18 via TBMB) [Bicycle Compound 83] | 199 | 288 | – | – |
| [βAla][Sar][Sar][Sar][Sar][Sar][Sar][Sar][Sar][Sar][Sar]H[dD]VPCP[1Nal]G[Aib]F[1Nal]CP[Tle]N[hArg][Aib][dD]C (linker 16-23-30 via TBMB) [Bicycle Compound 259] | – | – | 0.91 | – |
| [βAla][Sar][Sar][Sar][Sar][Sar][Sar][Sar][Sar][Sar][Sar]H[dD]VPCPWG[Aib]FWCP[Tle]N[hArg]P[dD]C (linker 16-23-30 via TBMB) [Bicycle Compound 271] | – | – | 3.66 | – |
| [Sar][Sar]ACPWGPFWCPV[dA]RPGC (linker 4-11-18 via TBMB) [Bicycle Compound 102] | 317 | 312 | – | – |
| [βAla][Sar][Sar][Sar][Sar][Sar][Sar][Sar][Sar][Sar][Sar]H[dD]VPCP[1Nal]G[Aib]F[1Nal]CP[Tle]N[hArg]PGC (linker 16-23-30 via TBMB) [Bicycle Compound 257] | – | – | 1.07 | – |
| Ac-[Sar][Sar]A[dD]VTCPWGPAWCPVNRPGC (linker 7-14-21 via TBMB′) [Bicycle Compound 173] | 6.69 | – | – | Ki (Human EphA2 (Ecto) [1]): 6.69 nM |
| Ac-[Sar][Sar]H[dD]VPCP[1Nal]G[Aib]F[1Nal]CP[Tle]N[hArg]PGC (linker 7-14-21 via TBMB) [Bicycle Compound 253] | – | – | 0.85 | – |

More lines, main results first:

| Ki (Human EphA2 (Ecto) [2]) [nM] | Ki (Human EphA2 (Ecto) [3]) [nM] | Ki [4] [nM] | Binder | further results |
| --- | --- | --- | --- | --- |
| – | 954 | – | [Sar][Sar]ACPWGPFWCPANRPGC (linker 4-11-18 via TBMB) [Bicycle Compound 292] | – |
| > 1000 | 1100 | – | [Sar][Sar]ACPWGAFWCPVNRPGC (linker 4-11-18 via TBMB) [Bicycle Compound 289] | – |
| – | – | 1.21 | Ac-[Sar][Sar]H[dD]VTCP[1Nal]G[Aib]F[1Nal]CP[Tle]NR[Aib]GC (linker 7-14-21 via TBMB) [Bicycle Compound 285] | – |
| – | 886 | – | [Sar][Sar]ACAWGPFWCPVNRPGC (linker 4-11-18 via TBMB) [Bicycle Compound 286] | – |
| – | 1000 | – | [Sar][Sar]ACPW[dA]PFWCPVNRPGC (linker 4-11-18 via TBMB) [Bicycle Compound 296] | – |
| – | – | 0.64 | [βAla][Sar][Sar][Sar][Sar][Sar][Sar][Sar][Sar][Sar][Sar]H[dD][Gly(cPent)]TCP[1Nal]G[Aib]F[1Nal]CP[Tle]N[hArg]P[dD]C (linker 16-23-30 via TBMB) [Bicycle Compound 280] | – |
| > 1000 | – | – | [Sar][Sar]ACPWGPFWCAVNRPGC (linker 4-11-18 via TBMB) [Bicycle Compound 291] | – |
| – | 1500 | – | [Sar][Sar]ACPWG[dA]FWCPVNRPGC (linker 4-11-18 via TBMB) [Bicycle Compound 297] | – |
| – | 711 | – | [Sar][Sar]ACPWGPFWCPVNAPGC (linker 4-11-18 via TBMB) [Bicycle Compound 293] | – |
| – | – | 0.59 | [βAla][Sar][Sar][Sar][Sar][Sar][Sar][Sar][Sar][Sar][Sar]H[dD][Gly(cPent)]TCP[1Nal]G[Aib]F[1Nal]CP[Tle]NR[Aib]GC (linker 16-23-30 via TBMB) [Bicycle Compound 279] | – |
